Reference: the Immune Epitope Database (IEDB)
pKd: −log10 of the molar value.

Tests used:
Experiment in all cases: IEDB peptide-MHC binding, purified MHC/competitive/radioactivity; filed as Kd, often an IC50 or EC50 that approximates it; ≥ and ≤ were set here for values at or beyond the usual limits of such assays
HLA-A*31:01 = biological target: HLA-A*31:01
HLA-A*68:01 = biological target: HLA-A*68:01
HLA-A*11:01 = biological target: HLA-A*11:01
HLA-A*03:01 = biological target: HLA-A*03:01
HLA-A*33:01 = biological target: HLA-A*33:01
HLA-A*02:06 = conditions: source organism: Dengue virus 4 Singapore/8976/1995
[1] = source organism: Vaccinia virus WR
[2] = source organism: Lassa virus Josiah
[3] = source organism: Vaccinia virus Copenhagen

| Sequence | pKd (HLA-A*31:01; [1]) | pKd (HLA-A*68:01; [1]) | pKd (HLA-A*11:01; [1]) | pKd (HLA-A*03:01; [1]) | pKd (HLA-A*33:01; [1]) | other results |
| --- | --- | --- | --- | --- | --- | --- |
| LVTRKCPQKK | ≤ 4.15 | ≤ 4.15 | 4.80 | ≤ 4.15 | ≤ 4.15 | – |
| EIINDKGKQY | 4.89 | 5.40 | ≤ 4.16 | ≤ 4.15 | ≤ 4.15 | – |
| YTISSESLVY | ≤ 4.55 | 7.67 | 7.50 | 6.08 | ≤ 4.15 | – |
| QLLKILDNLR | 7.16 | 6.25 | 4.82 | ≤ 4.15 | 5.25 | – |
| VTFLLLCGR | – | – | – | – | – | pKd (HLA-A*31:01; [2]): 7.74; pKd (HLA-A*68:01; [2]): 7.86; pKd (HLA-A*11:01; [2]): 7.74; pKd (HLA-A*03:01; [2]): 5.51; pKd (HLA-A*33:01; [2]): 6.88 |
| TSLAIKNYY | 5.65 | 5.78 | 6.53 | 4.74 | ≤ 4.53 | – |
| DTSYYVKEY | ≤ 4.11 | 7.16 | 4.84 | ≤ 4.11 | ≤ 4.11 | – |
| HLTKTDKKY | 5.02 | 5.14 | 5.71 | ≤ 4.64 | ≤ 4.38 | – |
| TTLLNETAK | 5.45 | 7.99 | 7.88 | 6.70 | 5.09 | – |
| VSDLYTSMR | 5.88 | 6.19 | 5.33 | 5.60 | 5.38 | – |
| LLNETAKVIK | 5.61 | 5.40 | 6.64 | 5.80 | 4.81 | – |
| VQADMGCVV | – | – | – | – | – | pKd (HLA-A*02:06): 7.63 |
| FAYVMNIER | 7.43 | 9.42 | 7.18 | 5.36 | 7.90 | – |
| ILARRPTPK | – | – | – | – | – | pKd (HLA-A*31:01; [3]): 5.81; pKd (HLA-A*68:01; [3]): 5.75; pKd (HLA-A*11:01; [3]): 7.34; pKd (HLA-A*03:01; [3]): 8.88; pKd (HLA-A*33:01; [3]): ≤ 4.17 |
